Reference: US20110086089A1, “USE OF P27KIP1 FOR THE PREVENTION AND TREATMENT OF HEART FAILURE” (UNIVERSITY HEALTH NETWORK, priority 2008, published 2011)
Marks after values point to notes of the source that are not given here.

How the values were obtained:
[1] = test system: WT mice; test: Chronic Ang II infusion for 14 days with daily TAT.protein injection, WT mice; assay type: in vivo; settings: for FS / LVEDD / LVEF / LVESD / PWD: WT, echocardiography at 14 days
From the text: FIG. 5 is a series of graphs, blots and cell stainings showing CK2-alpha-prime is important for Ang II action in vivo. […] Transduction of recombinant active CK2-alpha-prime evokes cardiac hypertrophy in the absence of Ang II. (A) Heart-weight corrected for body-weight (left panel) and Masson-stain of myocardial cross sections (right panel). Mean±s.e.m., n=6-8. #P<0.01 vs sham saline. *P<0.01 vs sham saline. Scale bar, 2 mm. (B) Cell size analysis of adult cardiac myocytes isolated from 8-weeks-old mice. One hundred cells from three different mice were analyzed per group. Mean±s.e.m. #P<0.01 vs sham saline. *P<0.01 vs sham saline. **P<0.01 vs Ang II. (c) Determination of ANF/BNP mRNA levels by qRT-PCR. Mean±s.e.m., n=6-8. *P<0.05 vs sham saline. **P<0.05 vs Ang II. #P<0.05 vs sham saline. (D) Visualization of ectopic TAT-conjugated p27deltaPi by indirect immunofluorescence microscopy employing anti-His tag antibodies. Scale bar, 200 μm. (E) Left ventricular extracts (2-3 mg) were subjected to anti-CK2-alpha-prime immunocomplex kinase assays employing histone H1 substrate. Aliquots of kinase reactions were subjected to immunoblotting using antibodies as indicated on the left (top and middle panel). Levels of endogenously expressed or transduced proteins in total left ventricular heart tissue samples (60 μg) were analyzed by immunoblotting (bottom panel). Experiments to (E) were done twice with similar results.
To define whether CK2-alpha-prime -directed p27 turnover plays a role in vivo, the inventors chronically infused Ang II^72 and intraperitoneally injected recombinant TAT-conjugated CK2-alpha-prime and p27 variants in WT and p27^−/− mice (FIG. 9). […] These mice had normal LVEDD and LVESD when compared to Ang II-infused littermates (Table 3). […] CK2-alpha-prime activity and p27 destabilization were similar to their non-transduced Ang II-treated siblings (FIG. 5E).
(§1) Spontaneously beating cardiomyocytes from heart ventricles of neonatal rats were cultured and subjected to treatment with angiotensin II (Ang II). DMAT (2-dimethylamino-4,5,6,7-tetrabromo-1H-benzimidazol), DMSO, lactacystin and LLM were obtained from Calbiochem. Ang II was purchased from Sigma. Animal usage was in accordance with approved institutional animal care guidelines. Age-matched male WI C57BL/6 and p27^−/− mice were used in this study. For results shown in FIGS. 1 to 9: Ang II was chronically infused subcutaneously by osmotic pumps (model 2000, Alzet) at a dose of 1.4 μg/kg per minute for 14 days. TAT.proteins (10 mg/kg) were injected intraperitoneally once daily for 14 days. For results shown in FIGS. 10 to 12: Ang II was chronically infused subcutaneously by osmotic pumps (model 2000, Alzet) at a dose of 0.7 μg/kg per minute for 16 days. TAT.proteins (20 mg/kg) were injected intraperitoneally once daily for 8 days starting at day 8. Thoracic aortic banding (TAB) and pressure gradient measurements were performed as described^39.

[2] = test system: p27 KO mice; test: Chronic Ang II infusion for 14 days with daily TAT.protein injection, p27 KO mice; assay type: in vivo; settings: for FS / LVEDD / LVEF / LVESD / PWD: p27 KO, echocardiography at 14 days
Procedure: (A) Heart-weight corrected for body-weight (left panel) and Masson-stain of myocardial cross sections (right panel). Mean±s.e.m., n=6-8. *P<0.01 vs sham saline. **P<0.01 vs Ang II. Scale bar, 2 mm. (B) Cell size analysis of adult cardiac myocytes isolated from 8-weeks-old mice. One hundred cells from three different mice were analyzed per group. Mean±s.e.m. *P<0.01 vs sham saline. **P<0.01 vs Ang II. (C) Determination of ANF/BNP mRNA levels by qRT-PCR. Mean±s.e.m., n=6-8. *P<0.01 vs sham saline. **P<0.01 vs Ang II. (D) CK2-alpha-prime-dependent kinase activity determined in whole left ventricular tissue samples. One typical result of two independent experiments is shown. (E, F) Ang II action induces apoptosis in p27^−/− mice. (E) Quantification of apoptotic cardiac myocytes (white arrowheads) by in situ TUNEL and GATA4 immunofluorescence histochemistry of left ventricular specimen. Mean±s.e.m., n=4. *P<0.01 vs sham saline. **P<0.05 vs sham saline. #P<0.01. (F) Determination of caspase 3 activity in total left ventricular heart tissue samples. Mean±s.e.m., n=4. *P<0.05 vs sham saline. #P<0.01. (G) Model for CK2-alpha-prime-dependent regulation of cardiac hypertrophy through phosphorylation of p27. Hypertrophic signals stimulate CK2-alpha-prime kinase that phosphorylates p27 at S83 and T187. Phosphorylation of p27 impairs its ability to bind to and inhibit […] activity. Subsequently, p27 is proteasomally degraded allowing hypertrophic growth to proceed.
Next, the inventors examined the effect of transduced proteins on cardiac hypertrophy in p27^−/− mice. Elimination of p27 gene function in these animals completely abrogated the ability of kd.CK2-alpha-prime to block cardiac hypertrophy (FIG. 6A-D). In contrast, hypertrophic responses to Ang II were abolished by p27deltaPi injections. Thus, reconstitution of p27 protein abundance in the myocardium of p27^−/− mice was accompanied by inhibition of Ang II action. Moreover, the inventors observed a marked increase in the number of TUNEL-positive cardiomyocyte nuclei in Ang II-infused p27^−/− mice (FIG. 6E,F) as compared to the WT controls. […] This was in direct contrast to the effect seen by ectopic kd.CK2-alpha-prime consistent with the inventors' previous work showing that CK2 is cardioprotective^73,74.
as §1

[3] = Ang infusion 1.4 μg/kg per minute 14 days, TAT.protein 10 mg/kg i.p. once daily
[4] = saline infusion, TAT.protein 10 mg/kg i.p. once daily 14 days

B1: kd.CK2-α′: catalytically-inactive kinase-dead CK2-alpha-prime, point mutation K69M; TAT-conjugated protein in mice, lentivirally expressed in cardiomyocytes (protein)
chain: MPGPAAGSRARVYAEVNSLRSREYWDYEAHVPSWGNQDDYQLVRKLGRGKYSEVFEAINITNNERVVVMILKPVKKKKIKREVKILENLRGGTNIIKLIDTVKDPVSKTPALVFEYINNTDFKQLYQILTDFDIRFYMYELLKALDYCHSKGIMHRDVKPHNVMIDHQQKKLRLIDWGLAEFYHPAQEYNVRVASRYFKGPELLVDYQMYDYSLDMWSLGCMLASMIFRREPFFHGQDNYDQLVRIAKVLGTEELYGYLKKYHIDLDPHFNDILGQHSRKRWENFIHSENRHLVSPEALDLLDKLLRYDHQQRLTAKEAMEHPYFYPVVKEQSQPCADNAVLSSGLTAAR
modifications: left off: small tags and cut ends
notes: TAT-conjugated protein in mice, lentivirally expressed in cardiomyocytes
cardiac hypertrophy to Ang II (heart/body weight ratio, myocyte area, ANF/BNP mRNA) ([1]; Ang II-treated WT mice, TAT.proteins 10 mg/kg i.p. once daily 14 days): abrogate cardiac hypertrophy
Ang II-induced CK2-alpha-prime activity (left ventricular immunocomplex kinase assay) ([1]; Ang II-treated WT mice, left ventricular extracts): abolished
FS [1, 3]: 38 ± 2.6** %
LVEDD [1, 3]: 3.8 ± 0.2** mm
LVEF [1, 3]: 71 ± 2.3** %
LVESD [1, 3]: 1.3 ± 0.1** mm
PWD [1, 3]: 0.7 ± 0.2** mm
LVEDD [1, 4]: 3.7 ± 0.2 mm
LVEF [1, 4]: 71 ± 2.4%
LVESD [1, 4]: 1.4 ± 0.2 mm
PWD [1, 4]: 0.7 ± 0.1 mm
FS ([1]; saline infusion, TAT.protein 10 mg/kg i.p. once daily 14 days, 8-weeks of age): 40 ± 1.5%
cardiac hypertrophy / hypertrophic responses to Ang II ([2]; Ang II-infused p27−/− mice, TAT.proteins 10 mg/kg i.p. once daily): fails to inhibit cardiac hypertrophy
FS [2, 3]: 52 ± 1.9* %
LVEDD [2, 3]: 4.5 ± 0.1* mm
LVEF [2, 3]: 83 ± 2.8* %
LVESD [2, 3]: 2.1 ± 0.2* mm
PWD [2, 3]: 1.2 ± 0.1* mm
FS [2, 4]: 39 ± 2.6%
LVEDD [2, 4]: 3.8 ± 0.2 mm
LVEF [2, 4]: 69 ± 2.3%
LVESD [2, 4]: 1.3 ± 0.1 mm
PWD [2, 4]: 0.7 ± 0.2 mm
